Test results published in patent US20220235103A1 (Molecular Partners, published 2022).
Numbering of substitutions follows the chain as printed.

B1: vS07_23E04 (designed binder)
chain: MRGSHHHHHHGSDLGKKLLQAARAGQLDEVRELLKAGADVNAKDQEGITPLHVAAHQGHLEIVEVLLKAGADVNAKDVWGRTPLHLAAWRGHLEIVEVLLKAGADVNAKDHAGATPLHAAALSGHLEIVEVLLKAGADVNAQDKSGKTPADLAARAGHQDIAEVLQKAA
notes: also called R3c
B2: vS07_29B10 (designed binder)
chain: B1 chain with Q45R, V53L, H56Q, Q57H, R90Q, H111L, A119V, S123Y
notes: also called R3b
B3: vS07_12C06 (designed binder)
chain: B1 chain with Q45R, I48K, H56Q, Q57E, R90I, H111V, A112S, S123H, K134N
notes: also called R1b; Rb1

These binders were tested against SARS-CoV-2 spike protein A222V (SARS-CoV-2, UniProt P0DTC2 14-1273) (assay: cell-based or functional assay).

Binder | VSV Pseudotype Neutralization Assay IC50
B1 | 19.5 ng/mL
B2 | 3.3 ng/mL
B3 | 4.6 ng/mL

What follows are binders tested against SARS-CoV-2 spike protein G446V (SARS-CoV-2, UniProt P0DTC2 14-1273) (assay: cell-based or functional assay).

Binder | VSV Pseudotype Neutralization Assay IC50
B1 | 2.3 ng/mL
B2 | 0.7 ng/mL
B3 | 1.8 ng/mL

Each binder was assayed against SARS-CoV-2 spike protein G476S (SARS-CoV-2, UniProt P0DTC2 14-1273) (assay: cell-based or functional assay).

Binder | VSV Pseudotype Neutralization Assay IC50
B1 | 29 ng/mL
B2 | 2.3 ng/mL
B3 | 3.7 ng/mL
